Reference: the supplement of paper PMC12764529
± gives the half width of the 95% confidence interval.

Assays:
[1] = folding stability dG unfold from trypsin proteolysis; higher = more stable
Outline: (§1)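 Unfolding free energy was derived, per protease or combined, by relating Bayesian-fitted K50 values from sequencing counts to a sequence-predicted unfolded-state K50 and a shared folded-state K50. The underlying digests exposed cysteine-free mini-proteins under 80 residues, in a PA-tagged cDNA display construct, to trypsin and chymotrypsin at 11 threefold-diluted concentrations and to a no-protease condition. A filter kept only designs with AlphaFold2 dimer inter-PAE above 15.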

[2] = folding stability dG unfold from chymotrypsin proteolysis; higher = more stable
Outline: as §1

[3] = folding stability dG unfold (combined trypsin and chymotrypsin); higher = more stable
Outline: as §1

Sequence | folding stability dG unfold [1] [kcal/mol] | folding stability dG unfold [2] [kcal/mol] | folding stability dG unfold [3] [kcal/mol]
SAGGSAGGSAGTIPLDNIKEVELEYDPNSGYYEHRIEFPNGRRLVIRFPPSDNVEIQWLDSAGGSAGGSAGG [r17_182_TrROS] | 1.09 ± 0.025 | 1.33 ± 0.062 | 1.31 ± 0.092
SAGGSAGGSAGTIRIKTKDGKTIEIELEGLSDEELENPEVLAEIKKALEDAGFEIVEVEPSAGGSAGGSAGG [r11_467_TrROS_Hall] | 2.19 ± 0.061 | 2.04 ± 0.054 | 2.09 ± 0.078
SAGGSAGGSAGTLRLEVELKLRVRNPATREWQEVTLRLEVEFEPAPPVLVRDANGRLLLLSAGGSAGGSAGG [r11_307_TrROS_Hall] | 1.68 ± 0.024 | 3.434 ± 0.021 | 2.98 ± 0.082
SAGGSAGGSAGTLTFTFDGVTVEVRLVDGYLVIRVTTEVEVNGKKYKVTLELVIKLPEGLSAGGSAGGSAGG [r11_879_TrROS_Hall] | 4.5 ± 0.41 | 5.4 ± 0.28 | 5.49 ± 0.28
SAGGSAGGSAGTRTITIFIPVPPGKMTPEDALDFIKPFFPDVKIEVEPVNNYYAIEITVKSAGGSAGGSAGG [r11_7_TrROS] | 1.17 ± 0.056 | 0.825 ± 0.045 | 1.04 ± 0.15
SAGGSAGGSAGTSIKEAKIKLPSNGKTYKAIVTTHPNGKKYVYIPETGKVYELNNLIIEPSAGGSAGGSAGG [r11_301_TrMRF] | 1.4 ± 0.047 | 2.32 ± 0.055 | 2.02 ± 0.059
SAGGSAGGSAGVEEIAKILQELGFEVEVEPVPDGMRTIEVQNKNGKKITIRITADGKIEISAGGSAGGSAGG [r17_503_TrROS] | 1.9 ± 0.03 | 2.2 ± 0.14 | 2.09 ± 0.11
SAGGSAGGSAGVIDKENDRWYITQETPGGEPKTIPIPWDDIPDLPPENVKEVELMPPDDISAGGSAGGSAGG [r11_779_TrROS] | -0.179 ± 0.031 | -0.00556 ± 0.056 | -0.0024 ± 0.1
SAGGSAGGSAGVKEGEEIEITLENGKTFTAKIEYDKETGYYKITIKDKKTNKEYEFVFKVSAGGSAGGSAGG [r11_960_TrROS_Hall] | 2.62 ± 0.3 | 4.39 ± 0.17 | 4.04 ± 0.22
SAGGSAGGSAGVLSLEGVVSTEEFEDPSSSNKTLVITLPGGERVVVNLPSSPSSVVTRLVSAGGSAGGSAGG [r17_182_JUSTAS] | 0.215 ± 0.028 | 0.467 ± 0.066 | 0.422 ± 0.074
SAGGSAGGSAGVNPNLPNYSVVPTTVTVKVLETFTDPQGNSYTREFTLEVETLIVNPPLLSAGGSAGGSAGG [r17_523_JUSTAS] | 2.89 ± 0.12 | 3.91 ± 0.084 | 3.59 ± 0.12
SAGGSAGGSAGVSPNEDVKVEVLEVKPDPETGTYTVLVKDPRTGEERTLTLTPEELAKLLSAGGSAGGSAGG [r11_894_JUSTAS] | 4.42 ± 0.19 | 4.53 ± 0.073 | 4.56 ± 0.079
SAGGSAGGSAGVSTTPDGVLVIKVKDPNTGKYTEIKVPTSRPEEAEKLKEKALEEGLELESAGGSAGGSAGG [r11_538_JUSTAS] | 0.708 ± 0.038 | 1.49 ± 0.022 | 1.2 ± 0.053
SAGGSAGGSAGVTVSLPDGRVVTEVTTLPDGTVVITYTKDGKKYTTTLNGSAPAPTPTLASAGGSAGGSAGG [r17_421_JUSTAS] | 2.42 ± 0.083 | 2.58 ± 0.035 | 2.52 ± 0.086
SAGGSAGGSAGWFTVTMMFLFPNGWAIKITWTFRMDENGNLKLEWEVEIEPVPPLKPGDPSAGGSAGGSAGG [r11_728_TrROS] | 4.38 ± 0.51 | 6.21 ± 0.35 | > 6
SAGGSAGGSAGWIDPEDIKKIQHERNPNNGRGEMRLEFENGKPVEIEFKSPEEALDWLLKSAGGSAGGSAGG [r11_339_TrROS] | -0.547 ± 0.15 | -0.156 ± 0.23 | -0.185 ± 0.13
SAGGSAGGSAGWIWMKVTEVNPDDGTIKIKFDGQKIKIPAKNMKIREDGDYVEIEIPEDDSAGGSAGGSAGG [r17_403_TrROS] | 0.137 ± 0.16 | 0.242 ± 0.22 | 0.228 ± 0.11
SAGGSAGGSAGWLKLKFEFTFMIIIWNDDGNNELVMIPIRIRITMTIPPIKYDPDGKLKLSAGGSAGGSAGG [r11_558_TrROS] | 2.87 ± 0.22 | 3.72 ± 0.067 | 3.51 ± 0.22
